Measured values from patent US8236761B2, “C-Met receptor regulation by angiotensin IV (AT4) receptor ligands” (Washington State University Research Foundation, priority 2006, dated 2012).
Non-standard residues stand in square brackets, D forms with d. No end group written: not given here. Nle = CCCC[C@H](N)C(=O)O

Key:
c-Met = c-Met (Homo sapiens, UniProt P08581); test: Immunoprecipitation/Western blot of HGF-dependent c-Met and Gab1 phosphorylation and association in HEK293 cells; assay type: cell-based; design: host or cells: HEK293
Experimental: (FIG. 5A) HEK293 cells were treated for 10 minutes with HGF at indicated concentrations. Lysates were immunoprecipitated (IP) with anti-c-Met antibody (DO-24) and immunoblotted (IB) with anti-c-Met or anti-phospho-tyrosine (06-427) antibody. (FIG. 5B) HEK293 cells were treated for 10 minutes with HGF and/or Norleual. Lysates were IP with anti-c-Met (DO-24) and IB with anti-c-Met (DQ-13) or anti-phospho-tyrosine (HAM 1676). (FIG. 5C) HEK293 lysates were IP with anti-c-Met (DO-24) and IB with anti-Gab1. (FIG. 5D) HEK 293 lysates were IP with anti-Gab1 and IB with anti-Gab1 or anti-phospho-tyrosine (HAM 1676). (FIGS. 5E, 5F, 5G) Relative amounts (normalized to % total c-Met in IP) of quantified IP/IB band intensities for control, 110 pM HGF-, 110 pM HGF and 20 pM Norleual-, and 20 pM Norleual-treated HEK293 cells for phospho-c-Met (FIG. 5E, n=4), phospho-Gab1 (FIG. 5F, n=4), and c-Met associated Gab1 (FIG. 5G, n=3). Error bars indicate ±SD.
HEK293 cells were treated for 10 minutes with HGF and/or Norleual at the indicated concentrations. Lysates were IP with anti-c-Met (DO-24, Millipore/Upstate, Billerica, Mass.) and IB with anti-c-Met (DQ-13, Millipore/Upstate) or anti-phosphotyrosine (HAM1676, lot JLB03, R&D Systems, Inc., Minneapolis, Minn.).
Immunoprecipitation and Western blotting. Cells were serum starved for two hours in DMEM before treatment. Cells were harvested using RIPA lysis buffer (Upstate Biotechnol. Inc., Lake Placid, N.Y.) with phosphatase inhibitor cocktails 1 and 2 (Sigma, St Louis, Mo., USA). Protein concentration was determined using the BCA assay (Pierce, Rockford, Ill., USA). Lysates were incubated with antibody overnight at 4° C. Immunoprecipitation controls received mouse non-specific Ig (Upstate). Proteins were captured with protein-A agarose (Upstate) and were washed with PBS. Proteins were resolved using SDS-PAGE electrophoresis (Criterion, BioRad, Hercules, Calif., USA), transferred to nitrocellulose, and incubated with appropriate antibodies. Proteins were visualized using the Supersignal West Pico Chemiluminescent Substrate system (Pierce). The film images were digitized and analyzed using TotalLab® software (AmershamPharmacia/GE HealthCare, Piscataway, N.J.).
Whether the interaction of Norleual with the c-Met receptor had functional consequences regarding c-Met signaling was next investigated by determining whether Norleual could alter the phosphorylation status of cellular protein tyrosine phosphate (FIG. 4) and more specifically, of c-Met (i.e., c-Met activation), and also whether Norleual could modulate Gab1 association with c-Met. Human embryonic kidney HEK293 cells were activated by HGF in the presence or absence of Norleual. Solubilized membranes were immunoprecipitated (IP) with an anti-c-Met antibody and immunoblotted (IB) for total c-Met, anti-phospho-tyrosine to detect the activated form of c-Met, and anti-Gab1 to detect c-Met/Gab1 association. […] To confirm these findings, treated HEK293 lysates were precipitated with anti-Gab1 and blotted for total Gab1 and phospho-Gab1, its activated form. Again, Norleual inhibited HGF-induced Gab1 phosphorylation (FIGS. 5D, […]).

MDCK cells = test: c-Met/HGF stimulated MDCK cell proliferation (MTT); assay type: cell-based, canine; details: HGF 10 ng/ml, COMPOUND 2 10^−6M to 10^−14M, four days
Experimental: Thereafter, 10 ng/ml of HGF alone and with the indicated concentrations of Norleual in a 1% FBS DMEM were added to the cells. The cells were cultured under these conditions for four days. On the fourth day, the treatment media was aspirated and replaced with 5 mg/ml of MTT reagent in 0.1 M glycine buffer (Invitrogen). The MTT reagent was incubated with the cells for four hours at 37° C. before adding DMSO to solubilize the cells and record the MTT absorbance on a plate reader. The controls were treated as background and subtracted from all of the treatments to determine the increase in proliferation due solely to HGF treatment. Differences between the treatments were determined using one-way ANOVA with Bonferroni's post-hoc analysis (Prism statistical analysis software). * indicate p<0.05 vs. HGF treatment. N=6, mean+/−SEM. […] Madin-Darby Canine Kidney (MDCK) cells were plated in the wells of a 96 well plate in 100 μl of complete Dulbecco's Modified Eagle's Medium (DMEM). The cells were serum starved for 24 hours to induce quiescence. […] Absorbance of the cleaved substrate was quantitated on a Biotek Synergy HT 2 plate reader according to the manufacturer's instructions. […] The data was analyzed with Prism® (GraphPad, San Diego, Calif.) statistical analysis software. * indicates p<0.01 vs. HGF treatment by Tukey's post-hoc analysis. […]

Sequence of c-Met (P08581 308-1390 limits assumed): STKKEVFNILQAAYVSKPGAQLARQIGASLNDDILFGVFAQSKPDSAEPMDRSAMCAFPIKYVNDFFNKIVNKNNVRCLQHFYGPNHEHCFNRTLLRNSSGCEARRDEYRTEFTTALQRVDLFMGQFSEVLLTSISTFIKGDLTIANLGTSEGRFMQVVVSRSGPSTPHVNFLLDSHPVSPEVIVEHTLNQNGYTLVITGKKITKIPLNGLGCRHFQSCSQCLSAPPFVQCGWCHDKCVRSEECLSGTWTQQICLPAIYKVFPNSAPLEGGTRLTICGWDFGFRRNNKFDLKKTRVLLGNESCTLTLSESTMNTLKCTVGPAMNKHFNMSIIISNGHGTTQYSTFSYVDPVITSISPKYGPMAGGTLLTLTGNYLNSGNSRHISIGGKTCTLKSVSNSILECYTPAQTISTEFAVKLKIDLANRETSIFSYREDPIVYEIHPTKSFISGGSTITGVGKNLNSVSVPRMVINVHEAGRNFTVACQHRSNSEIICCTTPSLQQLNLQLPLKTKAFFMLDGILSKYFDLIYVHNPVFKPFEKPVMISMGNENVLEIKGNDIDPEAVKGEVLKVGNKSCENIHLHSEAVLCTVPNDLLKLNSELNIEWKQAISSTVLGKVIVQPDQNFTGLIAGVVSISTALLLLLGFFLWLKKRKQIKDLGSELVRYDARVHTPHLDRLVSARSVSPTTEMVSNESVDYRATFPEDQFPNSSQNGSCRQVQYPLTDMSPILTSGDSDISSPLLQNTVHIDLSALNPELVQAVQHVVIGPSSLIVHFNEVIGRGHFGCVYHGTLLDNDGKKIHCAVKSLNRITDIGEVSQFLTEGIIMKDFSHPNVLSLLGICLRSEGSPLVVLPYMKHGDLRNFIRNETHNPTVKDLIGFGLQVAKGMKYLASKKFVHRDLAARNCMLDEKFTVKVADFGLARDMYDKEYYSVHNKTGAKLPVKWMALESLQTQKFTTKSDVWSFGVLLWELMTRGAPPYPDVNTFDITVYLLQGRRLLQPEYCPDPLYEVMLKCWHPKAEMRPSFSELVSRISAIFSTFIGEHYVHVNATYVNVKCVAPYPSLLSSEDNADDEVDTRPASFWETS
Sequence of c-Met (P08581 25-307 limits assumed): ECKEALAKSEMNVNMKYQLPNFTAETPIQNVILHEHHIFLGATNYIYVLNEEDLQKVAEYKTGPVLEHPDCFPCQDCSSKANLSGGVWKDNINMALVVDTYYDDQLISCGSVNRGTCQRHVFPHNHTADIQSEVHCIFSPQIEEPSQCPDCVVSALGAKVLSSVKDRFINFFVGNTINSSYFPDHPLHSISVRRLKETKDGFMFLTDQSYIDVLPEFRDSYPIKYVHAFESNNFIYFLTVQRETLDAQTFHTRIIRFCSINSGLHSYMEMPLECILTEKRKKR

Substance: Nle-Tyr-Leu-ψ-His-Pro-Phe ([Nle]YLHPF; also: reduced peptide bond psi(CH2NH2) between Leu and His) [Norleual]
- HGF-initiated association between Gab1 and c-Met (c-Met; HEK293 cells): significantly reduced
- c-Met phosphorylation, compound applied alone (c-Met; HEK293 cells, 10 minutes, no HGF): did not alter
- HGF-dependent Gab1 phosphorylation (IP anti-c-Met) (c-Met; HEK293 cells, Norleual 20 pM, 110 pM HGF): significantly reduced
- HGF-dependent c-Met phosphorylation (c-Met; HEK293 cells, Norleual 20 pM, 110 pM HGF, 10 minutes): significantly reduced
- HGF-induced Gab1 phosphorylation (IP anti-Gab1) (c-Met; HEK293 lysates precipitated with anti-Gab1): inhibited
- HGF stimulated MDCK cellular proliferation (MDCK cells): attenuation
- HGF stimulated MDCK cellular proliferation (MDCK cells; listed as Compound 2): inhibited
